Reference: patent US9969998B2, “Compositions of adenosine deaminase-2 (ADA2), variants thereof and methods of using same” (Halozyme, Inc., priority 2014, dated 2018)
Read-outs that look alike come from different tables or passages of the source.

Legend:
ADA2 = target: T1, ADA2 (Homo sapiens, UniProt Q9NZK5); conditions: cited from earlier work
T1 sequence (Q9NZK5 30-511): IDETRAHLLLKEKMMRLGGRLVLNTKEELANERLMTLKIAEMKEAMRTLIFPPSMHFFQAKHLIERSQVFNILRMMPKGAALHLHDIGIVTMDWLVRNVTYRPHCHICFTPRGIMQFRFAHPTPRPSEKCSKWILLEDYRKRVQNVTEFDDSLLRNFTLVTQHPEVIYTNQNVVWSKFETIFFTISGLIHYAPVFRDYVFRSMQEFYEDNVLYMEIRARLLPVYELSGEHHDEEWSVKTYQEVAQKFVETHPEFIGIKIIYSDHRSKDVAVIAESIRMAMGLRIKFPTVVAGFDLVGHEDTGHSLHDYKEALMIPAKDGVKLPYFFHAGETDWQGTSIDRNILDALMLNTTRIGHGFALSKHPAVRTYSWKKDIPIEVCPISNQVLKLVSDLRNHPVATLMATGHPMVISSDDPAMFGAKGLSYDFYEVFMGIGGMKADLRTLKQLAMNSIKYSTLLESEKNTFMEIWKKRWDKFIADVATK

[1] = Heparin binding capture ELISA (biotin-heparin on streptavidin plate); conditions: PEGylated and non-PEGylated forms (Table 22)
Experimental: Heparin binding of PEGylated rHuADA2 or variants was assessed by capture ELISA. Binding of rHuADA1 was assessed as a negative control. 100 μL of 0.2 mg/mL biotin-heparin (Sigma-Aldrich, St. Louis, Mo.; Cat No. B9806-10MG) was added to a streptavidin coated 96-well plate (Thermo Fisher Scientific, Rockford, Ill.; Cat. No. 15520), and incubated at room temperature for 1 hour. The plate was washed 6 times with PBS. Then, 150 μL of […] rHuADA2 was added to the heparin coated plate, titrated in 3× serial dilutions, and incubated at room temperature for 2 hours. The plate was then washed 6 times with PBS. A 1000× dilution of goat HRP-anti-FLAG pAb (Abcam, Cambridge, UK; Cat. No. Ab1238) was added to the ELISA plate and incubated at room temperature for 1 hour. The ELISA plate was then washed 6 times with phosphate buffered saline with Tween (PBST) and developed with the 3,3′,5,5′-Tetramethylbenzidine (TMB) substrate solution (Pierce, Thermo Fisher Scientific, Rockford, Ill.) according the manufacturer's instructions and reading the optical density at 450 nm (OD450) on a plate reader.

[2] = 37° C.; for Plasma incubated mean adenosine deaminase activity: 0.17 mg/ml in 25% BALB/c mouse plasma; for PBS incubated mean adenosine deaminase activity: 0.17 mg/ml in PBS 0.2% BSA
[3] = Heparin binding ELISA (heparin coated microtiter plate); conditions: for Average OD450, heparin binding ELISA: 3 μM protein
Experimental: A 96-well plate was coated with 100 μL of 200 μg/mL heparin sodium salt (Calibochem, EMD Milipore, Billerica, Mass.; Cat. No. 375095) in Na2CO3 buffer (pH 9.6), overnight at 4° C. The wells were blocked with 5% milk in PBS, and washed 6 times with PBS. 3 μM of select rHuADA2 variants (see Table 20), WT rHuADA2 (positive control) and WT rHuADA1 (negative control) were added to the wells individually and incubated for 2 hours at room temperature, followed by washing 6 times with PBS. 100 μL of 1:1000 diluted horseradish peroxidase (HRP)-anti-FLAG antibody (Abcam, Cambridge, UK; Cat. No. Ab1238) was added to the wells to detect binding and incubated at room temperature for 1 hour. The ELISA reactions were developed by adding the 3,3′,5,5′-Tetramethylbenzidine (TMB) substrate solution (Pierce, Thermo Fisher Scientific, Rockford, Ill.) according the manufacturer's instructions and reading the optical density at 450 nm (OD450) on a plate reader.

[4] = Adenosine deaminase (ADA) enzymatic activity assay kit; type: biochemical
[5] = Thermal stability by differential scanning fluorimetry (DSF); type: physicochemical; conditions: 0.1-1 mg/mL protein
Experimental: The stability of the rHuADA2 WT and variants was measured by differential scanning fluorimetry (DSF) at increasing temperatures. DSF measures conformational stability, which correlates with thermal stability. The melting temperature (Tm) in DSF is defined as the midpoint of the protein unfolding transition.
Non-PEGylated WT rHuADA2, non-PEGylated rHuADA2 variants, and PEGylated forms of WT rHuADA2 and rHuADA2 variants were prepared at concentrations of 0.1-1 mg/mL and mixed with the ROX™ protein thermal shift dye (Applied Biosystems, Carlsbad, Calif.; Cat. No. 4461146) to a final dye concentration that corresponds to a 125-fold dilution of the stock ROX™ solution. Protein samples were then loaded into 96-well plate at a volume of 20 μL/well in triplicate. A ViiA7 RT-PCR System (Applied Biosystems, Carlsbad, Calif.) was used to measure the shift in fluorescence as the temperature of the samples were increased. The reactions were subjected to the following steps: incubation at 25° C. for 2 min; ramping of temperature from 25 to 99° C. at a rate of 0.05° C. per second; followed by a 99° C. incubation for 2 min. The wavelengths used for emission and excitation were 623 nanometers (nm) and 580 nm, respectively.

[6] = mouse, in vivo, iv, 7.5 mg/kg
Description: Fifty four (54) male BALB/c mice were divided into six (6) dosing groups, and were further divided into three (3) groups each for sampling of blood at different time points. Thus, the mice were randomized into eighteen (18) groups total. Mice were weighed prior to the start of the study, and randomized into the 18 groups based upon their body weights. In each sampling group, three groups of (3) mice were used for dosing each test article to prevent oversampling of the blood from the animals. For measurement of baseline ADA2 levels, a blood sample was obtained from 12 randomly chosen mice and plasma was prepared using the anti-coagulant potassium (K3) ethylene diamine tetraacetic acid (K3-EDTA). All blood was collected by submandibular venipuncture.
Each mouse was injected by intravenous tail-vein injection with a 7.5 mg/kg dose of one of six ADA2 test article as set forth in Table 24, i.e. rHuADA2-K374D (K371D by mature numbering), PEG-rHuADA2-K374D (PEG-K371D by mature numbering), rHuADA2-R23E (R20E by mature numbering), PEG-rHuADA2-R23E (PEG-R20E by mature numbering), or WT ADA2 and PEG-WT ADA2.
Blood was collected at designated sampling time points from appropriate groups of mice as indicated below in Table 24 and kept on ice until plasma preparation. Plasma was prepared by centrifuging the blood (500×g for 5 min at 4° C.), transferring the plasma to a fresh tube and immediately freezing at −80° C. until the adenosine deaminase activity assay. Adenosine deaminase activity was determined as described in Example 4. The half-life, or time taken for the activity of ADA2 proteins to be reduced by half, was calculated. Also, total exposure was measured by calculating the Area Under the Concentration-time Curve (AUC).

[7] = Stability of ADA activity in plasma; type: in vitro ADME, mouse; conditions: long incubation (e.g., 24 hours) in plasma
Experimental: For therapeutic uses, such as for treatment of tumors or cancers, it is desirable to administer to the subject a dosage of ADA2 that will maintain plasma adenosine deaminase (ADA) activity for a sufficient time for therapeutic effect. […] The plasma stability of any ADA2 described herein, such as a wildtype, variant or conjugate, can be determined by measuring the changes in enzymatic activity and/or other physical properties, before and after incubation in plasma, e.g., ex vivo mammalian plasma.
Stability can be assessed in vitro or in vivo. For example, stability can be tested after exposure to plasma for a desired length of time, which can be empirically determined or selected by a skilled artisan depending on the desired length of time. For example, the incubation time can be at least 1 hour, such as at least 2, 3, 4, 5, 10, 15, 20, 24, 30, 36, 48, 60, 72 hours or more. The protein can be directly administered systemically, such as intravenously, and activity can be assessed. In other examples, the protein can be subject to appropriate incubation conditions in vitro. In one example, the stability of ADA activity of any ADA2 provided herein can be measured after incubation at 37° C., in 25% ex vivo plasma or serum, such as human or non-human plasma or serum, for example, mouse plasma. […]

[8] = adenosine deaminase activity, cited from earlier work
[9] = cited from earlier work

For `OC[C@H]1O[C@@H](n2cnc3c2N=CNC[C@H]3O)C[C@@H]1O` [2′-deoxycoformycin], the “inhibition of ADA2” value (ADA2) is listed as “potent inhibitors”.

B1: WT ADA1: recombinant human adenosine deaminase 1 with Strep-tag, mature SEQ ID NO:66/67 (protein, listed as Homo sapiens)
chain 1: AQTPAFDKPKVELHVHLDGSIKPETILYYGRRRGIALPANTAEGLLNVIGMDKPLTLPDFLAKFDYYMPAIAGCREAIKRIAYEFVEMKAKEGVVYVEVRYSPHLLANSKVEPIPWNQAEGDLTPDEVVALVGQGLQEGERDFGVKARSILCCMRHQPNWSPKVVELCKKYQQQTVVAIDLAGDETIPGSSLLPGHVQAYQEAVKSGIHRTVHAGEVGSAEVVKEAVDILKTERLGHGYHTLEDQALYNRLRQENMHFEICPWSSYLTGAWKPDTEHAVIRLKNDQANYSLNTDDPLIFKSTLDTDYQMTKRDMGFTEEEFKRLNINAAKSSFLPEDEKRELLDLLYKAYGMPPSASAGQNL
chain 2: AQTPAFDKPKVELHVHLDGSIKPETILYYGRRRGIALPANTAEGLLNVIGMDKPLTLPDFLAKFDYYMPAIAGCREAIKRIAYEFVEMKAKEGVVYVEVRYSPHLLANSKVEPIPWNQAEGDLTPDEVVALVGQGLQEGERDFGVKARSILCCMRHQPNWSPKVVELCKKYQQQTVVAIDLAGDETIPGSSLLPGHVQAYQEAVKSGIHRTVHAGEVGSAEVVKEAVDILKTERLGHGYHTLEDQALYNRLRQENMHFEICPWSSYLTGAWKPDTEHAVIRLKNDQANYSLNTDDPLIFKSTLDTDYQMTKRDMGFTEEEFKRLNINAAKSSFLPEDEKRELLDLLYKAYGMPPSASAGQNLSGSGSWSHPQFEK
modifications: Strep-tag; mature ADA1 protein; mature ADA1-linker-Strep
In the case of B1, the “Average OD450, heparin binding capture ELISA” value [1] is reported as <0.02, the “Plasma incubated mean adenosine deaminase activity” value ([2]; 0 hr) is reported as 71,663.6 mU/mL and the “PBS incubated mean adenosine deaminase activity” value ([2]; 0 hr) is reported as 61,077.0 mU/mL. The “Plasma incubated mean adenosine deaminase activity” value ([2]; 4 hr) was 46,772.1 mU/mL, the “PBS incubated mean adenosine deaminase activity” value ([2]; 4 hr) was 59,544.8 mU/mL and the “activity retained in PBS/BSA control” value ([2]; 24 hours) was “greater than 80%”. The “activity retained after treatment with plasma” value ([2]; 24 hours, mouse plasma) was “less than 1%”, the “Plasma incubated mean adenosine deaminase activity” value ([2]; 24 hr) was 673.6 mU/mL and the “PBS incubated mean adenosine deaminase activity” value ([2]; 24 hr) was 50,287.9 mU/mL. The “Average OD450, heparin binding ELISA” value ([3]; Set 1) was 0.07, the “Average OD450, heparin binding ELISA” value ([3]; Set 2) was 0.06 and the “Heparin Binding ELISA Average OD450” value ([3]; single and S265N combination variants (Table 34)) was −0.02.

B2: PEG-WT ADA2: WT rHuADA2 PEGylated with linear PEG-20K (conjugate, UniProt Q9NZK5 30-511, looked up)
Adenosine deaminase 2: T1 sequence (Q9NZK5 30-511)
modifications: linear PEG-20K
notes: WT rHuADA2 PEGylated with linear PEG-20K
For B2, the “Average OD450, heparin binding capture ELISA” value [1] was 0.75, the “adenosine deaminase activity mU/mL” value ([4]; PEGylated and non-PEGylated forms (Table 23)) was 124.2 mU/mL and the “% of WT adenosine deaminase activity” value ([4]; Table 23) was 102.2%. The “Tm, melting temperature by DSF” value [5] was 68.81 °C, the “AUC (mU * h)/mL” value [6] was 1,444,000 (mU * h)/mL and the “Half life slow (t1/2)” value [6] was 813 min. For the same molecule, the “Percent increase in AUC compared to WT ADA2” value [6] was 4291% and the “Percent increase in t1/2 compared to WT ADA2” value [6] was 1078%.

B3: ADA1: human adenosine deaminase 1, monomer, SEQ ID NO:12 (protein, listed as Homo sapiens)
chain: MAQTPAFDKPKVELHVHLDGSIKPETILYYGRRRGIALPANTAEGLLNVIGMDKPLTLPDFLAKFDYYMPAIAGCREAIKRIAYEFVEMKAKEGVVYVEVRYSPHLLANSKVEPIPWNQAEGDLTPDEVVALVGQGLQEGERDFGVKARSILCCMRHQPNWSPKVVELCKKYQQQTVVAIDLAGDETIPGSSLLPGHVQAYQEAVKSGIHRTVHAGEVGSAEVVKEAVDILKTERLGHGYHTLEDQALYNRLRQENMHFEICPWSSYLTGAWKPDTEHAVIRLKNDQANYSLNTDDPLIFKSTLDTDYQMTKRDMGFTEEEFKRLNINAAKSSFLPEDEKRELLDLLYKAYGMPPSASAGQNL
modifications: ADA1 protein; ref <300>: PUBLICATION INFORMATION:; ref <308>: DATABASE ACCESSION NUMBER: NCBI NP_000013.2; ref <309>: DATABASE ENTRY DATE: 2014-05-03
In the case of B3, the stability in plasma [7] is listed as “substantially less stable”, the pH optimum [8] is listed as ~7.5 and the pH optimum ([8]; listed as ADA′) is listed as 7.5. For the same molecule, the Km ([9]; for adenosine, wild-type enzyme in humans, read-out: Km) was ~52 µM and the Km ([9]; read-out: Km for adenosine) was ~100 µM.
